For experiment [1], the target named is PLK1 PBD protein (residues 367-603) (human) (UniProt P53350). Briefly: competitive FP, displacement of fluorescein tracer SEQ ID NO: 7 from PLK1 PBD (367-603).
For experiment [2] the target is unchanged. The experiment is described as follows: competitive FP.
For experiment [3], the target named is PLK1 326-603 (longer PBD construct) (human) (UniProt P53350). Briefly: competitive FP, displacement of fluorescent tracer peptide from PLK1 326-603.
PLK1 326-603 (longer PBD construct) (human), sequence (P53350 326-603 limits assumed): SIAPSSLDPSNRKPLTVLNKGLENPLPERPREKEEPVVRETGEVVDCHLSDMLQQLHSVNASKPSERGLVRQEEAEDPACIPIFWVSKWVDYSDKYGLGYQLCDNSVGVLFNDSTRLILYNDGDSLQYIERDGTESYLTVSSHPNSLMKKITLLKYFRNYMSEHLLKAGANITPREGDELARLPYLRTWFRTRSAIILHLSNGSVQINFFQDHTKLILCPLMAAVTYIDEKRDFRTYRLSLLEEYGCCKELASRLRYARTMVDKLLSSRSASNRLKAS

PLK1 PBD protein (residues 367-603) (human), sequence (P53350 367-603 limits assumed): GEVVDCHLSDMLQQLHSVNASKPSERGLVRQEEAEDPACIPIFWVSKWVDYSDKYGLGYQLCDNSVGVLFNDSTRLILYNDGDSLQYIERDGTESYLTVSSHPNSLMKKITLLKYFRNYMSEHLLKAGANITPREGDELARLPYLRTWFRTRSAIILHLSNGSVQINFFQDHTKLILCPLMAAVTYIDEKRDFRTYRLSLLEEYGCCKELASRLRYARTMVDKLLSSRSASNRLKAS

As to “Ac-AHS[pT]AI (sample no. 5782) (peptide)”, the 50% inhibitory concentration (IC50) (usually the concentration needed to halve the response being measured) in experiment [1] is 15 µM. Further, the fold higher IC50 (against Ac-LHS[pT]AI, sample no. 5781) in experiment [2] amounted to 3 fold.

Take LHS[pT]AI (sample no. 5649) (peptide): the IC50 in experiment [1] is 200 µM.

In experiment [1], “Ac-LLCS[pT]PNGL (sample no. 5821) (peptide)” showed a half-maximal inhibitory concentration (IC50) of 0.5 µM.

“3G1-S[pT]PNGL (4-ethylbenzoic acid) (Sample No. 5788) (peptide)” had an IC50 in experiment [1] of 16.5 µM. This IC50 is about 33-fold higher than that of the substance before.

In experiment [1], “Ac-PLHS[pT]A (sample no. 5743) (peptide)” displayed an IC50 of 2 µM.

Consider “LDCS[pT]PNGL (sample no. 5795) (peptide)”, for which the IC50 in experiment [1] was determined as 3 µM.

In the case of “3G2-S[pT]PNGL (4-butylbenzoic acid) (Sample No. 5827) (peptide)”, the IC50 in experiment [1] turned out to be 8.6 µM.

S[pT]PNGL (sample no. 5714) (peptide) displayed an IC50 in experiment [1] of over 600 µM.

In experiment [1], “Ac-LHS[pT]AI (sample no. 5781) (peptide)” returned a half-maximal inhibitory concentration (IC50) of 5 µM. Also, in experiment [2], the fold less potent than the parent peptide containing the N-terminal LLC was 6 fold and the fold more potent than the non-acetylated version (sample no. 5649) came out at 40 fold.

Consider “LLCS[pT]PNGL, native phospho-CDC25c PBD binding sequence (sample no. 292) (peptide)”, for which the IC50 stood at 1.3 µM in experiment [3] and 0.42 µM in experiment [1].

For the origin of these results see patent publication US20160011195A1.
